This assay deals with T1, Purified NBP35 (His‐tagged, from E. coli) (Arabidopsis thaliana, UniProt Q8H1Q2 1-350).
T1 construct: The SPR methods say only 'purified NBP35'; also called wild‐type NBP35; source: E. coli, purified (His-Trap HP column, desalted on PD10)
T1 sequence (looked up): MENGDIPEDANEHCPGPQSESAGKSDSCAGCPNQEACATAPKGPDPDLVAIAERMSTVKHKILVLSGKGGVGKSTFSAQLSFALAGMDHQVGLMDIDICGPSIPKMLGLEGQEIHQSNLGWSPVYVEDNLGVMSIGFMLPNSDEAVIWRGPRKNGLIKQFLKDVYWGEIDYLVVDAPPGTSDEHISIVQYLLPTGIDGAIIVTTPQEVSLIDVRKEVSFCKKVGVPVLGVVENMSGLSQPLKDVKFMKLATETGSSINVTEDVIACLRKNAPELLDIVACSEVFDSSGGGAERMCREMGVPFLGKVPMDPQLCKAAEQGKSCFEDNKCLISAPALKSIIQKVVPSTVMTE
Put plainly: SPR; Biacore T200, Streptavidin chip; Strep-tagged DRE2 captured from E. coli cell extract (about 1700 RU); purified NBP35 0-45 uM injected, multi-cycle; 25°C; 20 mM Tris-HCl pH 8, 0.15 M NaCl, 5% glycerol; equilibrium response, Affinity Fit, 1:1 model. As to conditions: one partner purified.

B1: Strep‐tagged DRE2 (natural protein)
chain: not shown
notes: DRE2/CIAPIN1, Arabidopsis thaliana, AT5G18400; printed also as 'DRE2-Strep'; also called DRE2‐Strep; source: E. coli cell extract, captured on a Streptavidin sensor chip
The term Kd denotes a measure of binding affinity in units of concentration. High values mean a looser complex, low ones a tighter complex. For the molecule B1, binding was put at a Kd of 3.3 ± 0.9 µM.

These data come from article PMC5324674, “NBP35 interacts with DRE2 in the maturation of cytosolic iron‐sulphur proteins in Arabidopsis thaliana” (The Plant Journal, 2017).
